From patent publication US20190322730A1

Columns and labels:
Assay in all cases: binding screen of Example 5; the reference itself
C3d = C3d (UniProt P01024)
C3b (human) = C3b (human) (UniProt P01024)
iC3b = iC3b (UniProt P01024)
C3c = C3c (UniProt P01024)
Factor Bb = Factor Bb (UniProt P00751)
C3a (human) = C3a (human) (UniProt P01024)
[1] = biological target: human complement component C3 (human) (UniProt P01024)

Measured: binding relative to negative control mIgG2

Factor Bb, sequence (P00751 260-764 limits assumed): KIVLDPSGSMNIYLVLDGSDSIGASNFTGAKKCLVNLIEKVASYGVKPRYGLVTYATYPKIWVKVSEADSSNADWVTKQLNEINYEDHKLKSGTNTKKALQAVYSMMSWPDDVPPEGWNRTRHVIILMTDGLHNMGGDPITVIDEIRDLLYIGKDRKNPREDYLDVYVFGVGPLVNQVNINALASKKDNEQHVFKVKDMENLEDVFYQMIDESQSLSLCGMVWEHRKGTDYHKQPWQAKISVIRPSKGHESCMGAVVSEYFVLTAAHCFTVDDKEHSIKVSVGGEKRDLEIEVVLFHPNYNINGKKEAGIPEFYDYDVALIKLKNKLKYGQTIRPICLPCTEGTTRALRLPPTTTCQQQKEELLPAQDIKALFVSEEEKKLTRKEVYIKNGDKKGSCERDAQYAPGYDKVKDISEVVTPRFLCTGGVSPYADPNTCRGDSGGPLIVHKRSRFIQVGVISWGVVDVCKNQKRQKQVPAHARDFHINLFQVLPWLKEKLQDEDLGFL
C3a (human), sequence (P01024 672-748 limits assumed): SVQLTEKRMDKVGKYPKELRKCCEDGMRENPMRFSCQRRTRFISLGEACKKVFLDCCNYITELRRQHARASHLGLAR
C3d, sequence (P01024 1002-1303 limits assumed): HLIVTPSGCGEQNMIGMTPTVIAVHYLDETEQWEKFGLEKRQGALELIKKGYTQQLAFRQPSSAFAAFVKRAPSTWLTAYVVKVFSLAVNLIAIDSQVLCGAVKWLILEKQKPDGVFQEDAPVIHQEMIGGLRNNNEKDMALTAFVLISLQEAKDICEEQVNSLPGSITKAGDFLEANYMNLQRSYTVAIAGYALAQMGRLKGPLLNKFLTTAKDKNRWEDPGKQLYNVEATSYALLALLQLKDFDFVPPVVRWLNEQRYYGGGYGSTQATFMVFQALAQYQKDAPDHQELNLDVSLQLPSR
C3b (human), sequence (P01024 23-667 limits assumed, chain 1 of 2): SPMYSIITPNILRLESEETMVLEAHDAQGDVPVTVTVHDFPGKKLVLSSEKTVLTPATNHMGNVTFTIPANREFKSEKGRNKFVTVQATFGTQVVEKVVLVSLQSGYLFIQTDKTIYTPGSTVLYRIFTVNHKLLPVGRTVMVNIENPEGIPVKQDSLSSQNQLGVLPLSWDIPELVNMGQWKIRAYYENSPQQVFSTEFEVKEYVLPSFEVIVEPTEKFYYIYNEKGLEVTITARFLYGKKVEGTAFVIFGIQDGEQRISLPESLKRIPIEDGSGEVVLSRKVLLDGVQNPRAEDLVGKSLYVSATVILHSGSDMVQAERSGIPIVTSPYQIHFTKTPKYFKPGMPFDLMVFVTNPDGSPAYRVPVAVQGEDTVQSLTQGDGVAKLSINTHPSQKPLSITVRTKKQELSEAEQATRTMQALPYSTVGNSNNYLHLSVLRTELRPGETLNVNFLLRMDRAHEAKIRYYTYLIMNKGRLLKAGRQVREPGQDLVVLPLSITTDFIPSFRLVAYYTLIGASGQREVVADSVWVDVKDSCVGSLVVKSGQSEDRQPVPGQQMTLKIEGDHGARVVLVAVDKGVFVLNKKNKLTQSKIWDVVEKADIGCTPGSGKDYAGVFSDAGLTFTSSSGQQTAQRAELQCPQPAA
C3b (human), sequence (P01024 749-1663 limits assumed, chain 2 of 2): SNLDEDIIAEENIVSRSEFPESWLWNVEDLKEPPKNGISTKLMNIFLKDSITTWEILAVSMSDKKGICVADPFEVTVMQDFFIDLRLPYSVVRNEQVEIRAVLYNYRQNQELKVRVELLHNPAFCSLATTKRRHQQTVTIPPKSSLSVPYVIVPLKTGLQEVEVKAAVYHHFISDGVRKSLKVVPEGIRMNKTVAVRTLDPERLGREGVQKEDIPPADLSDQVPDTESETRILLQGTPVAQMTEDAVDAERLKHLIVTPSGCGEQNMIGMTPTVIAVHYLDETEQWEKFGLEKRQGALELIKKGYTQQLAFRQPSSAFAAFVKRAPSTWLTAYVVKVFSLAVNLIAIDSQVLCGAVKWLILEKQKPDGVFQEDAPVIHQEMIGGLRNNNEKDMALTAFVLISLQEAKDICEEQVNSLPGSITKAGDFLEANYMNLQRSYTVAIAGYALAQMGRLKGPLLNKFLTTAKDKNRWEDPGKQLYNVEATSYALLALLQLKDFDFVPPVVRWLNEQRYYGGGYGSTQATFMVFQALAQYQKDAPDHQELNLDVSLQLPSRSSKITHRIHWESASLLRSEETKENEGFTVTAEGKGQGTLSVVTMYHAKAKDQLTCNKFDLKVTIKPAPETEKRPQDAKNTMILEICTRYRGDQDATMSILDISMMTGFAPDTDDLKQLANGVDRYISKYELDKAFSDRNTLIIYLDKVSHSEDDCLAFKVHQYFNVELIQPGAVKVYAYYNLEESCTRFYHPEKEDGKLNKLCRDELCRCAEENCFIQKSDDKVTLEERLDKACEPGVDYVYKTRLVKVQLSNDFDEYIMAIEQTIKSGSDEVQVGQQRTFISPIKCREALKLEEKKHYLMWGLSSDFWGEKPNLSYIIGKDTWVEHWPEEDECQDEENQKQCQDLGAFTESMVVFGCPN
human complement component C3 (human), sequence (P01024 23-667, chain 1 of 2): as the sequence (P01024 23-667 limits assumed, chain 1 of 2) above
human complement component C3 (human), sequence (P01024 672-1663, chain 2 of 2): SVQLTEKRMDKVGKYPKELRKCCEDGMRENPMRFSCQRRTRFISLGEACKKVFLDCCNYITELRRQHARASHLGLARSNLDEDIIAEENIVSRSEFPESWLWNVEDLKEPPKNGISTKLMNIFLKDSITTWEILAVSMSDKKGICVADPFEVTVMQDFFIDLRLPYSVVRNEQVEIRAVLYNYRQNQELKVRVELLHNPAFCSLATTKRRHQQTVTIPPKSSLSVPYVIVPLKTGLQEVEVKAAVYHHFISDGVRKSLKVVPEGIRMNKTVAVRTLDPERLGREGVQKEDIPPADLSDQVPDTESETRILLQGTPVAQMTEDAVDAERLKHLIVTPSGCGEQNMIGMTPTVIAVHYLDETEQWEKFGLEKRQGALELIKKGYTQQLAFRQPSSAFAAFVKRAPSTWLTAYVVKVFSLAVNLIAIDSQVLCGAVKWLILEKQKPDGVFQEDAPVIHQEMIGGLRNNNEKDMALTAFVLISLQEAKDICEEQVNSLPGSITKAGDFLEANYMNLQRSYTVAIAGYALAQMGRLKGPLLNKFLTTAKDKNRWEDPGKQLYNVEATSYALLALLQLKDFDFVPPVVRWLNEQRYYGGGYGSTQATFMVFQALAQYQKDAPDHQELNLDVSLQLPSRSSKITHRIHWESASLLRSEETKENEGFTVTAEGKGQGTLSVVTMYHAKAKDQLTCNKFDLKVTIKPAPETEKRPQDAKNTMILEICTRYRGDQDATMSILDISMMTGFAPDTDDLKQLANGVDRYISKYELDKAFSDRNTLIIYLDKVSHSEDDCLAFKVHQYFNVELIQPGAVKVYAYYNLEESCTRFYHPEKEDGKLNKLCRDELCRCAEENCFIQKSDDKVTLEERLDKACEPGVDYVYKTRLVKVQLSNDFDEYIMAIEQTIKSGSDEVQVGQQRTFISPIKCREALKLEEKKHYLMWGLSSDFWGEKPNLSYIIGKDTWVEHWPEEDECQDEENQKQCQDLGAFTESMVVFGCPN

negative control mIgG2 antibody
0: C3d | C3b (human) | iC3b | C3c | Factor Bb | C3a (human) | [1]
